Experimental data: patent US20230226096A1 (Orna Therapeutics, Inc., priority 2020, published 2023)

System: HEK293 cells
Type: cell-based, human
Conditions: luminescence from secreted Gluc in supernatant 24 hours after transfection of HEK293 cells; circular RNA encoding Gluc with the named IRES (UTR truncated to 675 nt)

Molecule	Expression
HRVB27 (nucleic acid, listed as Rhinovirus sp.) DNA: TTAAAACAGCGGATGGGTATCCCACCATCCGACCCACAGGGTGTAGTGCTCTGGTATTTTGTACCTTTGCACGCCTGTTTCCCCATTGTACCCCTCCTTAAATTTCCTCCCCAAGTAACGTTAGAAGTTTAAGGAAACAAATGTACAATAGGAAGCATCACATCCAGTGGTGTTATGTACAAGCACTTCTGTTTCCCCGGAGCGAGGTATAAGTGGTACCCACCGCCGAAAGCCTTTAACCGTTATCCGCCAATCAACTACGTAATGGCTAGTATTACCATGTTTGTGACTTGGTGTTCGATCAGGTGGTTCCCCCCACTAGTTTGGTCGATGAGGCTAGGAACTCCCCACGGGTGACCGTGTCCTAGCCTGCGTGGCGGCCAACCCAGCTTTTGCTGGGACGCCTTTTTACAGACATGGTGTGAAGACCTGCATGTGCTTGATTGTGAGTCCTCCGGCCCCTGAATGCGGCTAACCTTAACCCCGGAGCCTTGCAACATAATCCAATGTTGTTGAGGTCGTAATGAGTAATTCTGGGATGGGACCGACTACTTTGGGTGTCCGTGTTTCCTTTTATTCTTTATATTGTCTTATGGTCACAGCATATATAGCATATATACTGTGATC	2.04E+08
HRVA73 (nucleic acid, listed as Rhinovirus sp.) DNA: TTAAAACTGGGTTTGGGTTGTTCCCACCCAAACCACCCACGCGGTGTTGTACACTGTTATTCCGGTAACCTTGTACGCCAGTTTTATATCCCTTCCCCCCCTTGTAACTTAGAAGACATGCGAATCGACCAATAGCAGGCAATCAACCAGATTGTCACCGGTCAAGCACTTCTGTTTCCCCGGCTCTCGTTGATATGCTCCAACAGGGCAAAAACAATTGGAGTCGTTACCCGCAAGATGCCTACGCAAAACCTAGTAGCATCTTCGAAGATTTTTGGTTGGTCGCTCAGTTGCTACCCCAGCAATAGACCTGGCAGATGAGGCTAGAAATACCCCACTGGTGACAGTGTTCTAGCCTGCGTGGCTGCCTGCACACCCACACGGGTGTGAAGCCAAAGATTGGACAAGGTGTGAAGAGTCACGTGTGCTCATCTTGAGTCCTCCGGCCCCTGAATGCGGCTAACCTTAACCCCGTAGCCATTGCTCGCAATCCAGCGAGTATATGGTCGTAATGAGTAATTACGGGATGGGACCGACTACTTTGGGTGTCCGTGTTTCACTTTTTACTTATCAATTTGCTTATGGTGACAATATATATAGATATATATTGACACC	1.08E+08
EV L (nucleic acid, Enterovirus L) DNA: ACATGGGCCAGCCCACCACACCCACTGGGTGTAGTAGTCTGGTTCTATGGAACCTTTCTACGCCTCTTTTGCTTCCCTCCCCCATTTCTCCTTCGATTGCTCCACCTGTGATCTTTGCAACTTAGAAGAAATAATGAACCCGCACAATAGCGGGCGCTGAGCCACAGCGTCAATGTGCAAGCACTTCTGTTTCCCCGGAATGGGCCCATAGGCTGTACCCACGGCTGAAAGGGACCGGCCCGTTACCCGCCTTGGTACTGCGAGAATGTTAGTAACTCCCTCGATAGCTTTAGGCGTTACGCTCAGCCCTTTGAGCCCGAAGGGTAGTTCGGGTCGATGAGGCTCGTCATTCCCCACTGGCGACAGTGTGACTTGCCTGCGTTGGCGGCCCGGGGTGGGGGGCAACCCCCATCCACGCCTACTGAAGGACAGGGTGTGAAGGCGCTATTGCGCTACTAAGGAGTCCTCCGGCCCCTGAATGCGGCTAACCCGAACCCCGAGCCCACGGTGGTAAACCCGCCACAAGTGGGTCGTAATGAGTAATTTGGGGCAGGGACCGACTACTTTGGGTGTCCGTGTTTCCTGTTTTTCCATACGATGGCTGCTTATGGTGACAACCATAAGCAATTGGATTGGCCATCCGGTGTTCATATTGCGAAT	6.49E+07
